Square brackets hold non-standard residues; d marks the D form. Ends that are not written are not given here. Aib = CC(C)(N)C(=O)O
T1: human glucose-dependent insulinotropic peptide receptor (human, UniProt P48546)
T1 sequence: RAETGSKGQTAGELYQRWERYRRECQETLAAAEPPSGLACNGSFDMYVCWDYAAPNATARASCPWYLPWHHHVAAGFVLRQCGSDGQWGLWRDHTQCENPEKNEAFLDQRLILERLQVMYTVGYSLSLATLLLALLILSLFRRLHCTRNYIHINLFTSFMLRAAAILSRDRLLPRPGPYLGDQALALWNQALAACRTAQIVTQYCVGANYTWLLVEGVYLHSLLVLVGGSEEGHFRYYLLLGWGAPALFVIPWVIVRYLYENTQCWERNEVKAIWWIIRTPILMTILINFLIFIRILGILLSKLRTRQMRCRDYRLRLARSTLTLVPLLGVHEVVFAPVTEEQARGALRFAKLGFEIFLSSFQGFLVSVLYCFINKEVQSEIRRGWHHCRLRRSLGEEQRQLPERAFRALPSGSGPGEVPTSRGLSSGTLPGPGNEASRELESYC

B1: Compound No. 20 (peptide)
peptide: Y[Aib]EGTFTSDYSIYLDKIAAQEFVNWLLAGGPSSGAPPPSK-NH2
modifications: N-terminus assumed
SMILES: CC[C@H](C)[C@H](NC(=O)[C@H](CCCCN)NC(=O)[C@H](CC(=O)O)NC(=O)[C@H](CC(C)C)NC(=O)[C@H](Cc1ccc(O)cc1)NC(=O)[C@@H](NC(=O)[C@H](CO)NC(=O)[C@H](Cc1ccc(O)cc1)NC(=O)[C@H](CC(=O)O)NC(=O)[C@H](CO)NC(=O)[C@@H](NC(=O)[C@H](Cc1ccccc1)NC(=O)[C@@H](NC(=O)CNC(=O)[C@H](CCC(=O)O)NC(=O)C(C)(C)NC(=O)[C@@H](N)Cc1ccc(O)cc1)[C@@H](C)O)[C@@H](C)O)[C@@H](C)CC)C(=O)N[C@@H](C)C(=O)N[C@@H](C)C(=O)N[C@@H](CCC(N)=O)C(=O)N[C@@H](CCC(=O)O)C(=O)N[C@@H](Cc1ccccc1)C(=O)N[C@H](C(=O)N[C@@H](CC(N)=O)C(=O)N[C@@H](Cc1c[nH]c2ccccc12)C(=O)N[C@@H](CC(C)C)C(=O)N[C@@H](CC(C)C)C(=O)N[C@@H](C)C(=O)NCC(=O)NCC(=O)N1CCC[C@H]1C(=O)N[C@@H](CO)C(=O)N[C@@H](CO)C(=O)NCC(=O)N[C@@H](C)C(=O)N1CCC[C@H]1C(=O)N1CCC[C@H]1C(=O)N1CCC[C@H]1C(=O)N[C@@H](CO)C(=O)N[C@@H](CCCCN)C(N)=O)C(C)C
B2: Compound No. 16 (peptide)
peptide: Y[Aib]EGTFTSDYSIYLEKE[Aib]AKEFVNWLLAGGPSSGAPPPSK-NH2
modifications: N-terminus assumed
SMILES: CC[C@H](C)[C@H](NC(=O)[C@H](CO)NC(=O)[C@H](Cc1ccc(O)cc1)NC(=O)[C@H](CC(=O)O)NC(=O)[C@H](CO)NC(=O)[C@@H](NC(=O)[C@H](Cc1ccccc1)NC(=O)[C@@H](NC(=O)CNC(=O)[C@H](CCC(=O)O)NC(=O)C(C)(C)NC(=O)[C@@H](N)Cc1ccc(O)cc1)[C@@H](C)O)[C@@H](C)O)C(=O)N[C@@H](Cc1ccc(O)cc1)C(=O)N[C@@H](CC(C)C)C(=O)N[C@@H](CCC(=O)O)C(=O)N[C@@H](CCCCN)C(=O)N[C@@H](CCC(=O)O)C(=O)NC(C)(C)C(=O)N[C@@H](C)C(=O)N[C@@H](CCCCN)C(=O)N[C@@H](CCC(=O)O)C(=O)N[C@@H](Cc1ccccc1)C(=O)N[C@H](C(=O)N[C@@H](CC(N)=O)C(=O)N[C@@H](Cc1c[nH]c2ccccc12)C(=O)N[C@@H](CC(C)C)C(=O)N[C@@H](CC(C)C)C(=O)N[C@@H](C)C(=O)NCC(=O)NCC(=O)N1CCC[C@H]1C(=O)N[C@@H](CO)C(=O)N[C@@H](CO)C(=O)NCC(=O)N[C@@H](C)C(=O)N1CCC[C@H]1C(=O)N1CCC[C@H]1C(=O)N1CCC[C@H]1C(=O)N[C@@H](CO)C(=O)N[C@@H](CCCCN)C(N)=O)C(C)C
B3: Compound No. 19 (peptide)
peptide: Y[Aib]EGTFTSDYSIYLDKEAAKEFVNWLLAGGPSSGAPPPSK-NH2
modifications: N-terminus assumed
SMILES: CC[C@H](C)[C@H](NC(=O)[C@H](CO)NC(=O)[C@H](Cc1ccc(O)cc1)NC(=O)[C@H](CC(=O)O)NC(=O)[C@H](CO)NC(=O)[C@@H](NC(=O)[C@H](Cc1ccccc1)NC(=O)[C@@H](NC(=O)CNC(=O)[C@H](CCC(=O)O)NC(=O)C(C)(C)NC(=O)[C@@H](N)Cc1ccc(O)cc1)[C@@H](C)O)[C@@H](C)O)C(=O)N[C@@H](Cc1ccc(O)cc1)C(=O)N[C@@H](CC(C)C)C(=O)N[C@@H](CC(=O)O)C(=O)N[C@@H](CCCCN)C(=O)N[C@@H](CCC(=O)O)C(=O)N[C@@H](C)C(=O)N[C@@H](C)C(=O)N[C@@H](CCCCN)C(=O)N[C@@H](CCC(=O)O)C(=O)N[C@@H](Cc1ccccc1)C(=O)N[C@H](C(=O)N[C@@H](CC(N)=O)C(=O)N[C@@H](Cc1c[nH]c2ccccc12)C(=O)N[C@@H](CC(C)C)C(=O)N[C@@H](CC(C)C)C(=O)N[C@@H](C)C(=O)NCC(=O)NCC(=O)N1CCC[C@H]1C(=O)N[C@@H](CO)C(=O)N[C@@H](CO)C(=O)NCC(=O)N[C@@H](C)C(=O)N1CCC[C@H]1C(=O)N1CCC[C@H]1C(=O)N1CCC[C@H]1C(=O)N[C@@H](CO)C(=O)N[C@@H](CCCCN)C(N)=O)C(C)C
B4: Compound No. 18 (peptide)
peptide: Y[Aib]EGTFTSDYSIYLE[Aib]IAAQEFVNWLLAGGPSSGAPPPSK-NH2
modifications: N-terminus assumed
SMILES: CC[C@H](C)[C@H](NC(=O)[C@H](CO)NC(=O)[C@H](Cc1ccc(O)cc1)NC(=O)[C@H](CC(=O)O)NC(=O)[C@H](CO)NC(=O)[C@@H](NC(=O)[C@H](Cc1ccccc1)NC(=O)[C@@H](NC(=O)CNC(=O)[C@H](CCC(=O)O)NC(=O)C(C)(C)NC(=O)[C@@H](N)Cc1ccc(O)cc1)[C@@H](C)O)[C@@H](C)O)C(=O)N[C@@H](Cc1ccc(O)cc1)C(=O)N[C@@H](CC(C)C)C(=O)N[C@@H](CCC(=O)O)C(=O)NC(C)(C)C(=O)N[C@H](C(=O)N[C@@H](C)C(=O)N[C@@H](C)C(=O)N[C@@H](CCC(N)=O)C(=O)N[C@@H](CCC(=O)O)C(=O)N[C@@H](Cc1ccccc1)C(=O)N[C@H](C(=O)N[C@@H](CC(N)=O)C(=O)N[C@@H](Cc1c[nH]c2ccccc12)C(=O)N[C@@H](CC(C)C)C(=O)N[C@@H](CC(C)C)C(=O)N[C@@H](C)C(=O)NCC(=O)NCC(=O)N1CCC[C@H]1C(=O)N[C@@H](CO)C(=O)N[C@@H](CO)C(=O)NCC(=O)N[C@@H](C)C(=O)N1CCC[C@H]1C(=O)N1CCC[C@H]1C(=O)N1CCC[C@H]1C(=O)N[C@@H](CO)C(=O)N[C@@H](CCCCN)C(N)=O)C(C)C)[C@@H](C)CC
B5: Compound No. 17 (peptide)
peptide: Y[Aib]EGTFTSDYSIYLEKEA[Aib]KEFVNWLLAGGPSSGAPPPSK-NH2
modifications: N-terminus assumed
SMILES: CC[C@H](C)[C@H](NC(=O)[C@H](CO)NC(=O)[C@H](Cc1ccc(O)cc1)NC(=O)[C@H](CC(=O)O)NC(=O)[C@H](CO)NC(=O)[C@@H](NC(=O)[C@H](Cc1ccccc1)NC(=O)[C@@H](NC(=O)CNC(=O)[C@H](CCC(=O)O)NC(=O)C(C)(C)NC(=O)[C@@H](N)Cc1ccc(O)cc1)[C@@H](C)O)[C@@H](C)O)C(=O)N[C@@H](Cc1ccc(O)cc1)C(=O)N[C@@H](CC(C)C)C(=O)N[C@@H](CCC(=O)O)C(=O)N[C@@H](CCCCN)C(=O)N[C@@H](CCC(=O)O)C(=O)N[C@@H](C)C(=O)NC(C)(C)C(=O)N[C@@H](CCCCN)C(=O)N[C@@H](CCC(=O)O)C(=O)N[C@@H](Cc1ccccc1)C(=O)N[C@H](C(=O)N[C@@H](CC(N)=O)C(=O)N[C@@H](Cc1c[nH]c2ccccc12)C(=O)N[C@@H](CC(C)C)C(=O)N[C@@H](CC(C)C)C(=O)N[C@@H](C)C(=O)NCC(=O)NCC(=O)N1CCC[C@H]1C(=O)N[C@@H](CO)C(=O)N[C@@H](CO)C(=O)NCC(=O)N[C@@H](C)C(=O)N1CCC[C@H]1C(=O)N1CCC[C@H]1C(=O)N1CCC[C@H]1C(=O)N[C@@H](CO)C(=O)N[C@@H](CCCCN)C(N)=O)C(C)C
B6: Compound No. 22 (peptide)
peptide: Y[Aib]EGTFTSDYSIYLD[Aib]IAAQEFVQWLLAGGPSSGAPPPSK-NH2
modifications: N-terminus assumed
SMILES: CC[C@H](C)[C@H](NC(=O)[C@H](CO)NC(=O)[C@H](Cc1ccc(O)cc1)NC(=O)[C@H](CC(=O)O)NC(=O)[C@H](CO)NC(=O)[C@@H](NC(=O)[C@H](Cc1ccccc1)NC(=O)[C@@H](NC(=O)CNC(=O)[C@H](CCC(=O)O)NC(=O)C(C)(C)NC(=O)[C@@H](N)Cc1ccc(O)cc1)[C@@H](C)O)[C@@H](C)O)C(=O)N[C@@H](Cc1ccc(O)cc1)C(=O)N[C@@H](CC(C)C)C(=O)N[C@@H](CC(=O)O)C(=O)NC(C)(C)C(=O)N[C@H](C(=O)N[C@@H](C)C(=O)N[C@@H](C)C(=O)N[C@@H](CCC(N)=O)C(=O)N[C@@H](CCC(=O)O)C(=O)N[C@@H](Cc1ccccc1)C(=O)N[C@H](C(=O)N[C@@H](CCC(N)=O)C(=O)N[C@@H](Cc1c[nH]c2ccccc12)C(=O)N[C@@H](CC(C)C)C(=O)N[C@@H](CC(C)C)C(=O)N[C@@H](C)C(=O)NCC(=O)NCC(=O)N1CCC[C@H]1C(=O)N[C@@H](CO)C(=O)N[C@@H](CO)C(=O)NCC(=O)N[C@@H](C)C(=O)N1CCC[C@H]1C(=O)N1CCC[C@H]1C(=O)N1CCC[C@H]1C(=O)N[C@@H](CO)C(=O)N[C@@H](CCCCN)C(N)=O)C(C)C)[C@@H](C)CC

Columns and labels:
[1] = target: T1, human glucose-dependent insulinotropic …; assay: cell-based or functional assay
[2] = target: human glucagon-like peptide-1 receptor (human, UniProt P43220); assay: cell-based or functional assay

Binder | Activity for human GIPR (EC50 nM), cAMP HTRF [1] | Activity for human GLP-1R (EC50 nM), cAMP HTRF [2]
B1 | 0.008 nM | 0.027 nM
B2 | 0.018 nM | 0.007 nM
B3 | 0.02 nM | 0.024 nM
B4 | 0.012 nM | 0.022 nM
B5 | 0.057 nM | 0.01 nM
B6 | 0.018 nM | 0.051 nM

Reference: patent publication US20220168396A1, “MULTI-RECEPTOR AGONIST AND MEDICAL USE THEREOF” (published 2022)
